Tests used:
G-CSF = assay: Example 18 time course in vivo study, serum G-CSF ELISA; details: mice IV
Description: Formulations, listed in Table 31, were characterized by particle size, zeta potential, and encapsulation.
LNP formulations, shown in Table 31 (above), were administered to mice (n=5) intravenously (IV) at a single modified mRNA dose of 0.5, 0.05 or 0.005 mg/kg. The mice were bled at 8 hours, 24 hours, 72 hours and 6 days after they were administered with G-CSF or EPO modified mRNA formulations to determine protein expression using ELISA.

reticulocytes = assay: Example 22 non-human primate study, reticulocyte count; assay type: in vivo, cynomolgus monkey
Description: (§1) LNP formulations, shown in Table 31 (above), were administered to non-human primates (NHP) (cynomolgus monkey) (n=2) as intravenous injection (IV). The NHP were administered a single modified mRNA IV dose of 0.5 mg/kg, 0.05 mg/kg or 0.005 mg/kg of G-CSF or EPO in a dose volume of 0.5 mL/kg. The NHPs were bled before dosing with the modified mRNA LNP formulations to determine protein expression in the serum and a baseline complete blood count. After administration with the G-CSF modified mRNA formulation the NHP were bled at 8, 24, 48 and 72 hours to determined protein expression. After administration with the EPO modified mRNA formulation the NHP were bled at 8, 24, 48, 72 hours and 7 days to determined protein expression.
Samples collected from the NHPs after they were administered with G-CSF or EPO modified mRNA formulations were analyzed by ELISA to determine protein expression. Neutrophil and reticulocyte count was also determined pre-dose, 24 hours, 3 days, 7 days, 14 days and 18 days after administration of the modified G-CSF or EPO formulation.

[1] = test system: alanine transaminase (ALT); assay: Example 22 non-human primate study, serum chemistry alanine transaminase (ALT); assay type: in vivo, cynomolgus monkey
Description: as §1

B1: G-CSF: human G-CSF mRNA SEQ ID NO: 6, polyA ~160 nt, Cap1, fully modified with 5-methylcytosine and pseudouridine (nucleic acid, listed as Homo sapiens)
chain: GGGAAAUAAGAGAGAAAAGAAGAGUAAGAAGAAAUAUAAGAGCCACCAUGGCCGGUCCCGCGACCCAAAGCCCCAUGAAACUUAUGGCCCUGCAGUUGCUGCUUUGGCACUCGGCCCUCUGGACAGUCCAAGAAGCGACUCCUCUCGGACCUGCCUCAUCGUUGCCGCAGUCAUUCCUUUUGAAGUGUCUGGAGCAGGUGCGAAAGAUUCAGGGCGAUGGAGCCGCACUCCAAGAGAAGCUCUGCGCGACAUACAAACUUUGCCAUCCCGAGGAGCUCGUACUGCUCGGGCACAGCUUGGGGAUUCCCUGGGCUCCUCUCUCGUCCUGUCCGUCGCAGGCUUUGCAGUUGGCAGGGUGCCUUUCCCAGCUCCACUCCGGUUUGUUCUUGUAUCAGGGACUGCUGCAAGCCCUUGAGGGAAUCUCGCCAGAAUUGGGCCCGACGCUGGACACGUUGCAGCUCGACGUGGCGGAUUUCGCAACAACCAUCUGGCAGCAGAUGGAGGAACUGGGGAUGGCACCCGCGCUGCAGCCCACGCAGGGGGCAAUGCCGGCCUUUGCGUCCGCGUUUCAGCGCAGGGCGGGUGGAGUCCUCGUAGCGAGCCACCUUCAAUCAUUUUUGGAAGUCUCGUACCGGGUGCUGAGACAUCUUGCGCAGCCGUGAAGCGCUGCCUUCUGCGGGGCUUGCCUUCUGGCCAUGCCCUUCUUCUCUCCCUUGCACCUGUACCUCUUGGUCUUUGAAUAAAGCCUGAGUAGGAAG
modifications: polyA ~160, Cap1, 5mC/pseudouridine modified
G-CSF protein expression detectable out to (G-CSF; 0.005 mg/kg and 0.05 mg/kg): 72 h
G-CSF Serum Concentration (G-CSF; 0.005 mg/kg, 8 hours): 11,550.6 pg/ml
G-CSF Serum Concentration (G-CSF; 0.005 mg/kg, 24 hours): 5,068.9 pg/ml
G-CSF Serum Concentration (G-CSF; 0.05 mg/kg, 8 hours): 462,312.5 pg/ml
G-CSF Serum Concentration (G-CSF; 0.05 mg/kg, 24 hours): 80,903.8 pg/ml
G-CSF Serum Concentration (G-CSF; 0.5 mg/kg, 8 hours): >1,250,000 pg/ml
G-CSF Serum Concentration (G-CSF; 0.5 mg/kg, 24 hours): 495,812.5 pg/ml
G-CSF Serum Concentration (G-CSF; 0.5 mg/kg, 72 hours): 1,325.6 pg/ml
Reticulocyte count (reticulocytes; Table 39, Female NHP, 0.005 mg/kg, 14/18 days): 0.057 10^12/L
Reticulocyte count (reticulocytes; Table 39, Female NHP, 0.005 mg/kg, 24 hours): 0.07 10^12/L
Reticulocyte count (reticulocytes; Table 39, Female NHP, 0.005 mg/kg, 3 days): 0.054 10^12/L
Reticulocyte count (reticulocytes; Table 39, Female NHP, 0.005 mg/kg, 7 days): 0.066 10^12/L
Reticulocyte count (reticulocytes; Table 39, Female NHP, 0.005 mg/kg, Pre-dose): 0.06 10^12/L
Reticulocyte count (reticulocytes; Table 39, Female NHP, 0.05 mg/kg, 14/18 days): 0.06 10^12/L
Reticulocyte count (reticulocytes; Table 39, Female NHP, 0.05 mg/kg, 24 hours): 0.046 10^12/L
Reticulocyte count (reticulocytes; Table 39, Female NHP, 0.05 mg/kg, 3 days): 0.061 10^12/L
Reticulocyte count (reticulocytes; Table 39, Female NHP, 0.05 mg/kg, 7 days): 0.094 10^12/L
Reticulocyte count (reticulocytes; Table 39, Female NHP, 0.05 mg/kg, Pre-dose): 0.049 10^12/L
Reticulocyte count (reticulocytes; Table 39, Female NHP, 0.5 mg/kg, 14/18 days): 0.071 10^12/L
Reticulocyte count (reticulocytes; Table 39, Female NHP, 0.5 mg/kg, 24 hours): 0.046 10^12/L
Reticulocyte count (reticulocytes; Table 39, Female NHP, 0.5 mg/kg, 3 days): 0.017 10^12/L
Reticulocyte count (reticulocytes; Table 39, Female NHP, 0.5 mg/kg, 7 days): 0.021 10^12/L
Reticulocyte count (reticulocytes; Table 39, Female NHP, 0.5 mg/kg, Pre-dose): 0.055 10^12/L
Reticulocyte count (reticulocytes; Table 39, Male NHP, 0.005 mg/kg, 14/18 days): 0.069 10^12/L
Reticulocyte count (reticulocytes; Table 39, Male NHP, 0.005 mg/kg, 24 hours): 0.037 10^12/L
Reticulocyte count (reticulocytes; Table 39, Male NHP, 0.005 mg/kg, 3 days): 0.037 10^12/L
Reticulocyte count (reticulocytes; Table 39, Male NHP, 0.005 mg/kg, 7 days): 0.046 10^12/L
Reticulocyte count (reticulocytes; Table 39, Male NHP, 0.005 mg/kg, Pre-dose): 0.037 10^12/L
Reticulocyte count (reticulocytes; Table 39, Male NHP, 0.05 mg/kg, 14/18 days): 0.107 10^12/L
Reticulocyte count (reticulocytes; Table 39, Male NHP, 0.05 mg/kg, 24 hours): 0.048 10^12/L
Reticulocyte count (reticulocytes; Table 39, Male NHP, 0.05 mg/kg, 3 days): 0.101 10^12/L
Reticulocyte count (reticulocytes; Table 39, Male NHP, 0.05 mg/kg, 7 days): 0.157 10^12/L
Reticulocyte count (reticulocytes; Table 39, Male NHP, 0.05 mg/kg, Pre-dose): 0.055 10^12/L
Reticulocyte count (reticulocytes; Table 39, Male NHP, 0.5 mg/kg, 14/18 days): 0.029 10^12/L
Reticulocyte count (reticulocytes; Table 39, Male NHP, 0.5 mg/kg, 24 hours): 0.032 10^12/L
Reticulocyte count (reticulocytes; Table 39, Male NHP, 0.5 mg/kg, 3 days): 0.041 10^12/L
Reticulocyte count (reticulocytes; Table 39, Male NHP, 0.5 mg/kg, 7 days): 0.009 10^12/L
Reticulocyte count (reticulocytes; Table 39, Male NHP, 0.5 mg/kg, Pre-dose): 0.067 10^12/L
ALT ([1]; Female NHP, 0.005 mg/kg, 2 days): 32 U/L
ALT ([1]; Female NHP, 0.005 mg/kg, 4 days): 58 U/L
ALT ([1]; Female NHP, 0.005 mg/kg, 7 days): 55 U/L
ALT ([1]; Female NHP, 0.005 mg/kg, 14 days): 46 U/L
ALT ([1]; Female NHP, 0.005 mg/kg, Pre-dose): 51 U/L
ALT ([1]; Female NHP, 0.05 mg/kg, 2 days): 39 U/L
ALT ([1]; Female NHP, 0.05 mg/kg, 4 days): 56 U/L
ALT ([1]; Female NHP, 0.05 mg/kg, 7 days): 73 U/L
ALT ([1]; Female NHP, 0.05 mg/kg, 14 days): 31 U/L
ALT ([1]; Female NHP, 0.05 mg/kg, Pre-dose): 53 U/L
ALT ([1]; Female NHP, 0.5 mg/kg, 2 days): 209 U/L
ALT ([1]; Female NHP, 0.5 mg/kg, 4 days): 98 U/L
ALT ([1]; Female NHP, 0.5 mg/kg, 7 days): 149 U/L
ALT ([1]; Female NHP, 0.5 mg/kg, 14 days): 145 U/L
ALT ([1]; Female NHP, 0.5 mg/kg, Pre-dose): 216 U/L
ALT ([1]; Male NHP, 0.005 mg/kg, 2 days): 39 U/L
ALT ([1]; Male NHP, 0.005 mg/kg, 4 days): 48 U/L
ALT ([1]; Male NHP, 0.005 mg/kg, 7 days): 29 U/L
ALT ([1]; Male NHP, 0.005 mg/kg, 14 days): 44 U/L
ALT ([1]; Male NHP, 0.005 mg/kg, Pre-dose): 43 U/L
ALT ([1]; Male NHP, 0.05 mg/kg, 2 days): 82 U/L
ALT ([1]; Male NHP, 0.05 mg/kg, 4 days): 88 U/L
ALT ([1]; Male NHP, 0.05 mg/kg, 7 days): 73 U/L
ALT ([1]; Male NHP, 0.05 mg/kg, 14 days): 50 U/L
ALT ([1]; Male NHP, 0.05 mg/kg, Pre-dose): 58 U/L
ALT ([1]; Male NHP, 0.5 mg/kg, 2 days): 63 U/L
